Reference: US20220348623A1 (Biogen, published 2022)

Target: T1, AspN-treated GDF11 (human, UniProt O95390 60-114; O95390 122-407, N-linked glycan at Asn-94, biotinylated through the glycan (Octet))
T1 construct: Full length GDF11 (ACE378) cleaved with endoproteinase AspN only; Glycopeptide 60-114 stays non-covalently associated with fragment 122-407, about 100 kDa by SEC; Minor fragments 60-117, 128-407, 133-407 and 25-114/117 were also detected; also called AspN digested GDF11; GDF11 Asp-N biotin sample
T1 sequence (peptide): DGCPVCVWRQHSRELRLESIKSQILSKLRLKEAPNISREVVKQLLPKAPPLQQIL
T1 sequence: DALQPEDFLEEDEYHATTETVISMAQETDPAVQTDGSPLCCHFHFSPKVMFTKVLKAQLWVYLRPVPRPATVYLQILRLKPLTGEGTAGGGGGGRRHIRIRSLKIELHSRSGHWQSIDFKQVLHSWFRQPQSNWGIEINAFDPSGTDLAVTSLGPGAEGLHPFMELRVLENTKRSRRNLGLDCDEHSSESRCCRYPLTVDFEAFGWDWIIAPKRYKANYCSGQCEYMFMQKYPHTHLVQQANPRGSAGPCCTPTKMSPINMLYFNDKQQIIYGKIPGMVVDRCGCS
Test: Octet, biotinylated GDF11 sample captured on Streptavidin sensor, receptor-Fc in solution
Description: Following this treatment, GDF11 peptide 60-112/114 was in the supernatant and the rest of the protein precipitated and was in the pellet fraction. The specificity of labeling of GDF11 with biotin hydrazide was confirmed by Western blotting using Streptavidin Horseradish peroxidase for detection. Only full length GDF11 and glycopeptide 60-114 were detected and not the major fragments 122-407 or 299-407. Octet Binding Studies. Binding characteristics of the biotinylated samples were evaluated by Octet on an Octet RED System (FortéBio™, Menlo Park, Calif.) using Dip and Read™ Streptavidin (SA) Biosensors (FortéBio™). Samples were prepared in 5 mM NaH₂PO₄ pH 6.0, 150 mM NaCl, 0.005% Tween-20. […] The ability of biotinylated AspN/furin GDF11 to bind Type I and II receptors was also assessed by Octet using the same loading conditions, followed by treatment of the receptors at 10 μg/mL. […] The tips were washed for 1 min and dissociation monitored for 30 min in the presence of 20 μM free biotin. For secondary binding studies with the receptors, the tips were loaded with biotinylated GDF11 and controls, and washed as described above, then the receptor samples were loaded for 15 min and dissociation monitored for 5 min.
The binding characteristics of the GDF11 peptide 60-112/114 for mature GDF11 residues 299-407 and for AspN fragment residues 122-407 were assessed using an Octet Red system. […]

binding result: no binding
B1: Recombinant Human Activin RIB (ALK-4)-Fc chimeric protein (Fc fusion, UniProt P36896 24-126, looked up)
chain: SGPRGVQALLCACTSCLQANYTCETDGACMVSIFNLDGMEHHVRTCIPKVELVPAGKPFYCLSSEDLRNTHCCYTDYCNRIDLRVPSGHLKEPEHPSMWGPVE
notes: Bought from R&D systems; also called Activin RIB-Fc; Type I receptor; Fc part of the bought chimera not given
